From the supplement of paper PMC10065799, “High-throughput profiling of sequence recognition by tyrosine kinases and SH2 domains using bacterial peptide display” (eLife, 2023)

Legend:
Fyn = Fyn (UniProt P06241); assay: phosphorylation enrichment, bacterial display (enrichment ratio); higher = better substrate or ligand; peptides without Tyr show the background
FGFR3 = FGFR3 (UniProt P22607); assay: as above
EPHB2 = EPHB2 (UniProt P29323); assay: as above
AncSZ = assay: as above
c-Abl (mouse) = assay: as above
c-Src = assay: as above
Hck = Hck (UniProt P08631); assay: as above
EPHB1 = EPHB1 (UniProt P54762); assay: as above
MERTK = MERTK (UniProt Q12866); assay: as above
FGFR1 = FGFR1 (UniProt P11362); assay: as above
Fes = Fes (UniProt P07332); assay: as above
Jak2 = Jak2 (UniProt O60674); assay: as above
Fer (mouse) = assay: as above
c-Src SH2 = assay: SH2 binding enrichment of the phosphorylated peptide, bacterial display (enrichment ratio); higher = better substrate or ligand; peptides without Tyr show the background
Grb2 SH2 = Grb2 SH2 (UniProt P62993); assay: as above
SHP2-C SH2 = assay: as above
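Throughout, for SH2 binding enrichment of the phosphorylated peptide, bacterial display: peptide library displayed on the E. coli surface as eCPX fusions, selected cells deep-sequenced, score is each peptide's frequency after selection divided by its frequency in the input.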
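Throughout, for phosphorylation enrichment, bacterial display: 11-residue human phosphosite peptides and single-mutation variants displayed on the E. coli surface, counted by deep sequencing, each peptide's frequency after selection divided by its frequency in the unselected input library; frequency after pTyr selection over input frequency; kinase dosed for 20-30% of maximal phosphorylation in three min.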

Sequence of Fyn (P06241 whole entry, looked up): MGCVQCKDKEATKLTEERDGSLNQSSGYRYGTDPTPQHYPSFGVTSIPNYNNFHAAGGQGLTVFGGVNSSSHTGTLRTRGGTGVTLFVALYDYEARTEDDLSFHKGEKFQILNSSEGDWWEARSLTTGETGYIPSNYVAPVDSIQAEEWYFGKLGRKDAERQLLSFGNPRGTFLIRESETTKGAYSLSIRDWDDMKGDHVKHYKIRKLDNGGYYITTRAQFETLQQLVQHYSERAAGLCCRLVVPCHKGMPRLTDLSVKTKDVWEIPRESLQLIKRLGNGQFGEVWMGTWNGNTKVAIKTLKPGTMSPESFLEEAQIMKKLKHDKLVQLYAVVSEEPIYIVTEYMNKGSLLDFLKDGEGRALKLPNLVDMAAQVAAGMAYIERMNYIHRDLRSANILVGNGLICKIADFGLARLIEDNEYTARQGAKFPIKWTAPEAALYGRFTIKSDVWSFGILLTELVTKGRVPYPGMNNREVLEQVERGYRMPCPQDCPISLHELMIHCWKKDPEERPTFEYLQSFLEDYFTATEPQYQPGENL
Sequence of EPHB2 (P29323 whole entry, looked up): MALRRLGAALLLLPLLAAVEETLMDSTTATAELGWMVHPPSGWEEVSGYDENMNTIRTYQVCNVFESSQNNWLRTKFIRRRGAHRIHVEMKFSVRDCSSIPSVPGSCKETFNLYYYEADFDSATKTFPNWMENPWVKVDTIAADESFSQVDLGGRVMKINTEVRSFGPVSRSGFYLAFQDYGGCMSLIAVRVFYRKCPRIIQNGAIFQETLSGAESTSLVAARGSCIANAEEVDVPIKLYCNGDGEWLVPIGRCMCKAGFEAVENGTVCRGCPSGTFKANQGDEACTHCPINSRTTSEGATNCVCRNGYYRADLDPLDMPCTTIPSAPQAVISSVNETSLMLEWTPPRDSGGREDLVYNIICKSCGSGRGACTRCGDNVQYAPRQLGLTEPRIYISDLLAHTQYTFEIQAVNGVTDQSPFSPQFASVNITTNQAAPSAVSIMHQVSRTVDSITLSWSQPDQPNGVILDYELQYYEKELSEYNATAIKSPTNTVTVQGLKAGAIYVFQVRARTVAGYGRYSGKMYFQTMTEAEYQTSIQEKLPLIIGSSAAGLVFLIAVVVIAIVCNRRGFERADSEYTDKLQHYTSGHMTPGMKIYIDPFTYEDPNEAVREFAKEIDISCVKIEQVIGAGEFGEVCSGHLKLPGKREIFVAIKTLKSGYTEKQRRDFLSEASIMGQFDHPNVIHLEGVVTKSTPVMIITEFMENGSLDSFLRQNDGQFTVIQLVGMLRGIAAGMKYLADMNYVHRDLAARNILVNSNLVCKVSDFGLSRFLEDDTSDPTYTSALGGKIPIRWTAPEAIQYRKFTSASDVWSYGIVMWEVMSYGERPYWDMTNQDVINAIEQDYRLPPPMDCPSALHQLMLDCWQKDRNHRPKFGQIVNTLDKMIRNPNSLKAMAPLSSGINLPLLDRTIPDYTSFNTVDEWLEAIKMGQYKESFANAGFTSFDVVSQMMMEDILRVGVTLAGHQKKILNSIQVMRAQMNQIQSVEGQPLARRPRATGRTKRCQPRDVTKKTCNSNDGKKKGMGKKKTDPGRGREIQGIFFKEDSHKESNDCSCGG
Sequence of Jak2 (O60674 whole entry, looked up): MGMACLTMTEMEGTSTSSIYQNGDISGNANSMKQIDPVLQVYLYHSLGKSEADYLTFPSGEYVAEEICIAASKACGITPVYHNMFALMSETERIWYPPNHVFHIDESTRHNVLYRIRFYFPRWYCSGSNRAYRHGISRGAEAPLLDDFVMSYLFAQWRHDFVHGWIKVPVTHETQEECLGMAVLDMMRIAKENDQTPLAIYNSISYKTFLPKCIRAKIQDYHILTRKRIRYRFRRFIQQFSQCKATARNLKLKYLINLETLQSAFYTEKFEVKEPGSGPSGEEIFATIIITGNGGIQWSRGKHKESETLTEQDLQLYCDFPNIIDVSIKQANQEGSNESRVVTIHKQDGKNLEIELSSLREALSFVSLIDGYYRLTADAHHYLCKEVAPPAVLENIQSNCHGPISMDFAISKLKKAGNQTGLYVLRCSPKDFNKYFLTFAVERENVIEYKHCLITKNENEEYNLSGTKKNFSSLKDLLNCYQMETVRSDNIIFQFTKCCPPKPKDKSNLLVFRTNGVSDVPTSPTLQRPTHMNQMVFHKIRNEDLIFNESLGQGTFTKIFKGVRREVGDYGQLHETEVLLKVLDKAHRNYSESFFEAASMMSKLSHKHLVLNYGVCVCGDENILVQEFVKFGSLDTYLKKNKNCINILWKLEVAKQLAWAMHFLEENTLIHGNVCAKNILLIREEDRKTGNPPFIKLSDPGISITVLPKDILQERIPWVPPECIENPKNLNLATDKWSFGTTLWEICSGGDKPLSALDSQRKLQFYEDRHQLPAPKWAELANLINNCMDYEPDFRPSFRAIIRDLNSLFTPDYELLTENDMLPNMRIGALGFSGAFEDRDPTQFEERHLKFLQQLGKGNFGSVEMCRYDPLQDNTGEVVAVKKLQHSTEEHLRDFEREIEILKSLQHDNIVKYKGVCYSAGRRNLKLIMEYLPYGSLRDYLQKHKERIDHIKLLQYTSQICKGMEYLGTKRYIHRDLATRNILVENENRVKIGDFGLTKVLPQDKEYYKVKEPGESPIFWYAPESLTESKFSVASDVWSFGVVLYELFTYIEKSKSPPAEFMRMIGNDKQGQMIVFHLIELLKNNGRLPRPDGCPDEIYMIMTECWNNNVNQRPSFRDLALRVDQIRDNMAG
Sequence of Hck (P08631 whole entry, looked up): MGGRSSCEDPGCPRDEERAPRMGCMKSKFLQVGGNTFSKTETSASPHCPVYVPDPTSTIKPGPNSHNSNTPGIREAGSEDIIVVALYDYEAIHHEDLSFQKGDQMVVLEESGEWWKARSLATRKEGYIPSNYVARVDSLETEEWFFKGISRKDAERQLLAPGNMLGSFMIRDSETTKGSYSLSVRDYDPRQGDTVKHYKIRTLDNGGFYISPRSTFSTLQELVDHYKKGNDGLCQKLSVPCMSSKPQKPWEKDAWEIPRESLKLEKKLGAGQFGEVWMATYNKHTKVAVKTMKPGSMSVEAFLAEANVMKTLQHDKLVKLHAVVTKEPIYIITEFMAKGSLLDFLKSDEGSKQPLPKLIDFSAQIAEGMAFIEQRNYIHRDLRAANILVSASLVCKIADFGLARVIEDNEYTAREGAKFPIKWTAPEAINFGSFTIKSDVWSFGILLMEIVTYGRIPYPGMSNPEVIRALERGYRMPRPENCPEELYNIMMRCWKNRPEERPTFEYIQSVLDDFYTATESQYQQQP
Sequence of MERTK (Q12866 whole entry, looked up): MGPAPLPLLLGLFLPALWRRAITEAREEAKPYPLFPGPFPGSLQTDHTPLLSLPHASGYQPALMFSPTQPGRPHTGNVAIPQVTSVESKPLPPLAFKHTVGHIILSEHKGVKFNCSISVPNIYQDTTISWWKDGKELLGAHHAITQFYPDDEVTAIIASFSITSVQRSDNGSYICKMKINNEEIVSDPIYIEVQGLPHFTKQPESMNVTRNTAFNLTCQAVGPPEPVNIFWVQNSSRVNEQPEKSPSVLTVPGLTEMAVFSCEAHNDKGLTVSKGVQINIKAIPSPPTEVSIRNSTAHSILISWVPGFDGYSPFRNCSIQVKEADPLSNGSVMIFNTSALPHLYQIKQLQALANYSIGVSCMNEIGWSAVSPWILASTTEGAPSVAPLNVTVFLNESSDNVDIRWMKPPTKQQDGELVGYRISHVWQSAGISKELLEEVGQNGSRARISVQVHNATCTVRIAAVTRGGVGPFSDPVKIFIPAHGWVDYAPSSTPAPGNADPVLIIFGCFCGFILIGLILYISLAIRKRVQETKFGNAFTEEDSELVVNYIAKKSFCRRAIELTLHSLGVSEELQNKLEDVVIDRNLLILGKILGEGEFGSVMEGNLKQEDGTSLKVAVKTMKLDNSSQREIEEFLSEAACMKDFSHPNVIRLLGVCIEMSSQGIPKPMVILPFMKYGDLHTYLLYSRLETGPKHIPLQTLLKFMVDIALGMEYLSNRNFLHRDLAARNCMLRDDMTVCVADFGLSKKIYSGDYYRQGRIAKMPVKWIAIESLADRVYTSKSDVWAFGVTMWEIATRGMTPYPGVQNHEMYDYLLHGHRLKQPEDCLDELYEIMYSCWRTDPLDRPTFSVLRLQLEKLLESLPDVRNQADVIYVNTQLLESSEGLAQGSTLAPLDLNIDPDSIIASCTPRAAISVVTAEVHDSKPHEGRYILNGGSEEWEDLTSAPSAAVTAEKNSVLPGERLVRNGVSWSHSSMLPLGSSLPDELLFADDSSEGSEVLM
Sequence of Fes (P07332 whole entry, looked up): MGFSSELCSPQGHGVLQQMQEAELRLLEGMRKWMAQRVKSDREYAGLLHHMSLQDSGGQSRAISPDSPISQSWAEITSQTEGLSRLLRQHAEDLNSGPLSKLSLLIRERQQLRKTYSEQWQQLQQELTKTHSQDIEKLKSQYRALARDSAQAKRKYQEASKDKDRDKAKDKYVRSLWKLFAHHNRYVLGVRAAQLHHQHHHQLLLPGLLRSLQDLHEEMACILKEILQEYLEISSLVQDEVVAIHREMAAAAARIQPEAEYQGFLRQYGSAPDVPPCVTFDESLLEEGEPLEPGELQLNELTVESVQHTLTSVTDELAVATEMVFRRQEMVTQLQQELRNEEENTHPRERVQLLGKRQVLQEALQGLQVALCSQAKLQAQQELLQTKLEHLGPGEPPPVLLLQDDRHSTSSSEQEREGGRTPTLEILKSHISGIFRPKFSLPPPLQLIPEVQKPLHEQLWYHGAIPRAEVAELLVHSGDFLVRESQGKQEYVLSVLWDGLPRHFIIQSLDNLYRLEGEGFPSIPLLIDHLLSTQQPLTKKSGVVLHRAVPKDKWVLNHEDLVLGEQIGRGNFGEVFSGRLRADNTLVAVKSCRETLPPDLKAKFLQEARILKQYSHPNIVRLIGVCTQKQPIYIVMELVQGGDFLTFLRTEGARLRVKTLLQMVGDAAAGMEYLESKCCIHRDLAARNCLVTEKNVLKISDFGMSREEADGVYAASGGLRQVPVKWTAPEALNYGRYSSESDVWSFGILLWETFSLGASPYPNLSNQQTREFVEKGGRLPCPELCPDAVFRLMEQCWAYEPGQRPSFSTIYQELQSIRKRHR

SH2 binding enrichment (c-Src SH2) | SH2 binding enrichment (Grb2 SH2) | SH2 binding enrichment (SHP2-C SH2) | Sequence | phosphorylation enrichment (Fyn) | phosphorylation enrichment (FGFR3) | phosphorylation enrichment (EPHB2) | phosphorylation enrichment (AncSZ) | phosphorylation enrichment (c-Abl (mouse)) | phosphorylation enrichment (c-Src) | phosphorylation enrichment (Hck) | phosphorylation enrichment (EPHB1) | phosphorylation enrichment (MERTK) | phosphorylation enrichment (FGFR1) | phosphorylation enrichment (Fes) | phosphorylation enrichment (Jak2) | phosphorylation enrichment (Fer (mouse))
0.583 | 1.02 | 0.854 | QKTGDYFDLFG [PTPN11_Y62_N58K_YF] | 0.971 | 17 | 6.35 | 2.17 | 0.815 | 0.639 | 0.442 | 11 | 1.04 | 20.1 | 1.04 | 7.57 | 0.434
4.44 | 0.918 | 0.99 | FSNPAYYVLEG [INPPL1_Y986_N982S] | 1.32 | 7.89 | 0.509 | 0.834 | 0.591 | 1.43 | 0.778 | 0.614 | 6.51 | 10.1 | 0.848 | 3.92 | 0.426
0.802 | 0.868 | 0.75 | LGGAMYFLEAE [PKHD1_Y452_YF] | 1.13 | 1.51 | 0.984 | 1.53 | 0.784 | 1.01 | 1.07 | 0.999 | 0.709 | 0.62 | 1.8 | 1.34 | 0.623
0.456 | 0.916 | 0.61 | NLTVNYKKNLI [SQOR_Y259] | 0.351 | 0.461 | 0.401 | 0.669 | 0.495 | 0.43 | 0.389 | 0.486 | 0.435 | 0.427 | 1.05 | 0.619 | 0.427
0.459 | 0.748 | 0.724 | FQNGMYGLHQD [SGSH_Y89_H84Y_YF] | 0.599 | 0.555 | 0.543 | 0.665 | 0.552 | 0.828 | 0.598 | 0.437 | 0.456 | 0.462 | 0.709 | 0.733 | 0.454
0.489 | 0.913 | 0.462 | EVEFQYPFRLH [SYP_Y73_E72Q] | 0.445 | 0.709 | 0.498 | 1.03 | 0.885 | 0.506 | 0.473 | 0.64 | 0.443 | 0.475 | 1.23 | 1.1 | 0.524
0.539 | 0.806 | 1.22 | HSSPVYVGRVV [TGM2_Y219_R214H] | 3 | 1.24 | 1.47 | 1.85 | 1.17 | 1.57 | 6.86 | 2.08 | 1.5 | 1.37 | 1.97 | 1 | 1.63
2.05 | 1.57 | 1.59 | CTSIHYNFMCN [TP53_Y234_T231S_YF] | 0.516 | 0.571 | 0.502 | 0.848 | 0.694 | 0.447 | 0.473 | 0.54 | 0.366 | 0.488 | 0.918 | 1 | 0.519
0.749 | 1.01 | 0.992 | LTSKPYAFTAW [NDUFS1_Y236_R241W] | 0.371 | 0.511 | 0.544 | 0.575 | 0.503 | 0.4 | 0.353 | 0.421 | 1.12 | 0.413 | 0.717 | 0.682 | 0.448
0.636 | 0.845 | 0.676 | SDGHEYIFVDR [PDGFRB_Y579_P584R_YF] | 0.436 | 0.833 | 0.448 | 0.962 | 0.489 | 0.517 | 0.398 | 0.427 | 0.35 | 1.04 | 0.759 | 0.71 | 0.329
0.42 | 0.756 | 0.636 | GLDGSYLLRDS [SH2D1A_Y29] | 0.413 | 0.464 | 0.387 | 0.574 | 0.471 | 0.397 | 0.563 | 0.371 | 0.413 | 0.426 | 0.622 | 0.578 | 0.39
1 | 1.09 | 1.17 | QLHREYCLSPR [HJURP_Y445] | 0.92 | 0.733 | 0.786 | 1.38 | 1.13 | 1.34 | 0.889 | 0.784 | 0.887 | 0.898 | 1.12 | 0.877 | 0.765
7.31 | 0.743 | 3.31 | MACDRYVAICS [OR8D4_Y123] | 0.529 | 0.503 | 0.592 | 0.709 | 0.55 | 0.586 | 0.45 | 0.508 | 0.576 | 0.623 | 0.841 | 0.755 | 0.475
0.485 | 0.767 | 0.625 | AGIENYTSRFG [NKD2_Y256] | 0.421 | 0.529 | 0.386 | 0.569 | 0.585 | 0.426 | 0.329 | 0.817 | 0.418 | 0.434 | 0.719 | 0.465 | 0.383
0.523 | 0.773 | 0.794 | CFTRQYTLPPG [HSPB1_Y142_K141Q] | 0.388 | 0.656 | 0.57 | 0.976 | 0.722 | 0.361 | 0.497 | 0.577 | 0.399 | 0.553 | 0.943 | 0.901 | 0.496
1.31 | 0.757 | 0.657 | HNLYSYPTKYE [MYO3A_Y1396_H1400Y] | 5.43 | 0.683 | 16.7 | 2.65 | 2.34 | 2.62 | 8.88 | 10.6 | 14.8 | 0.699 | 0.958 | 0.606 | 17
0.607 | 0.868 | 0.598 | QYQLKYSETPF [SIX6OS1_Y129] | 0.591 | 0.769 | 0.907 | 1 | 0.808 | 0.519 | 0.722 | 0.743 | 0.838 | 0.598 | 1.1 | 0.7 | 0.43
0.657 | 0.843 | 0.782 | FRIGPYQPSVP [MATR3_Y784_N787S_YF] | 0.453 | 0.616 | 0.543 | 0.712 | 0.536 | 0.478 | 0.537 | 0.604 | 0.412 | 0.517 | 0.868 | 0.662 | 0.5

The next lines start with the sequence.

Sequence | SH2 binding enrichment (c-Src SH2) | SH2 binding enrichment (Grb2 SH2) | SH2 binding enrichment (SHP2-C SH2) | phosphorylation enrichment (Fyn) | phosphorylation enrichment (FGFR3) | phosphorylation enrichment (EPHB2) | phosphorylation enrichment (AncSZ) | phosphorylation enrichment (c-Abl (mouse)) | phosphorylation enrichment (c-Src) | phosphorylation enrichment (Hck) | phosphorylation enrichment (EPHB1) | phosphorylation enrichment (MERTK) | phosphorylation enrichment (FGFR1) | phosphorylation enrichment (Fes) | phosphorylation enrichment (Jak2) | phosphorylation enrichment (Fer (mouse))
PELINYHQPNS [BTK_Y361_H364P] | 0.704 | 1.07 | 0.763 | 0.597 | 0.857 | 0.727 | 0.928 | 0.574 | 0.8 | 0.734 | 1.04 | 0.657 | 0.723 | 0.908 | 0.829 | 0.678
PYAEPYADYGG [APBA1_Y187_S184A] | 7.71 | 0.836 | 0.695 | 1.33 | 1.76 | 1.4 | 2.86 | 1.82 | 5.47 | 1.19 | 1.16 | 0.853 | 2.13 | 3.07 | 2.47 | 0.861
AHPGEYGAEAL [HBA1_Y25_A22P] | 0.508 | 0.728 | 0.707 | 0.488 | 0.559 | 0.51 | 0.801 | 0.634 | 0.408 | 0.486 | 0.516 | 0.443 | 0.453 | 0.768 | 0.563 | 0.425
FPIDHYLGKEM [G6PD_Y202_R198P_YF] | 0.497 | 0.908 | 0.716 | 0.396 | 0.619 | 0.485 | 0.789 | 0.524 | 0.489 | 0.68 | 0.404 | 0.391 | 0.492 | 0.903 | 0.685 | 0.469
LKDEDYLKDTV [HAUS3_Y582_I586T] | 0.478 | 0.708 | 0.501 | 1.99 | 1.63 | 1.67 | 3.63 | 1.37 | 0.838 | 1.67 | 1.7 | 1.04 | 1.88 | 3.04 | 2.34 | 0.928
FKDYFYCWNTS [AICDA_Y146_F151S] | 0.375 | 0.73 | 0.542 | 0.618 | 9.31 | 2.58 | 2.62 | 0.973 | 0.885 | 0.599 | 5.4 | 2.14 | 11.2 | 1.44 | 3.67 | 1.03
HNMPIYEGFAL [ACTA1_Y168_V165M_YF] | 0.431 | 0.607 | 0.847 | 21.5 | 0.786 | 32.9 | 1.44 | 29.2 | 13.2 | 15.6 | 24.3 | 14.7 | 0.704 | 5.34 | 0.859 | 26.7
NSVLVYRNGDP [DCDC2_Y22_K17N] | 0.401 | 0.773 | 0.614 | 0.443 | 0.533 | 0.463 | 0.621 | 0.534 | 0.591 | 0.492 | 0.532 | 0.454 | 0.393 | 0.678 | 0.627 | 0.373
RNLLIYTEFGK [HGD_Y166_G161R] | 0.457 | 0.94 | 0.194 | 8.15 | 0.945 | 1.12 | 1.4 | 2.48 | 4.93 | 5.2 | 2.86 | 5.3 | 0.583 | 1.22 | 0.997 | 0.827
WCSNDHLGMSR [ALAS2_Y199_Y199H] | 0.684 | 0.801 | 0.811 | 0.434 | 0.576 | 0.514 | 0.754 | 0.504 | 0.447 | 0.375 | 0.394 | 0.418 | 0.416 | 0.671 | 0.537 | 0.438
IVAREYFSEAD [CAMK2A_Y106_YF] | 0.566 | 0.9 | 0.867 | 0.538 | 0.752 | 0.657 | 1.09 | 0.728 | 0.491 | 0.5 | 0.6 | 0.472 | 0.508 | 1.16 | 0.965 | 0.563
SLEKSYELLDG [ACTB_Y240_P243L] | 4.69 | 1.01 | 0.729 | 0.533 | 0.963 | 0.584 | 1.16 | 0.956 | 0.52 | 0.595 | 0.575 | 0.555 | 0.508 | 1.16 | 1.25 | 0.705
RELGEYPLAEF [ALDH1A3_Y492_A493P_YF] | 2.13 | 0.763 | 0.617 | 0.636 | 0.742 | 0.645 | 1.18 | 0.753 | 0.582 | 0.536 | 0.511 | 0.614 | 0.709 | 1.14 | 1.41 | 0.484
SHKELYKWFTS [DYNC1H1_Y3051_E3048K] | 0.777 | 1.02 | 1.05 | 0.513 | 0.501 | 0.439 | 0.634 | 0.566 | 0.576 | 0.566 | 0.544 | 0.66 | 0.897 | 0.812 | 0.717 | 0.574
FECKWYIPLTD [BCR_Y756_D752E_YF] | 0.561 | 0.685 | 0.817 | 0.434 | 1 | 0.723 | 1.23 | 0.796 | 0.451 | 0.538 | 0.754 | 0.433 | 0.497 | 1.49 | 1.32 | 0.592
